In the nanobody polyreactivity screen of Harvey et al. (2022):

Assay: yeast display, Sf9 membrane polyspecificity reagent, FACS + sequencing; frameworks hold sequencing errors
Method in brief: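 Nanobodies came from a synthetic yeast display library in Saccharomyces cerevisiae BJ5465, induced with galactose for 36–48 hours and stained for 1 hour at 4 °C with 10% biotinylated, detergent-solubilized Sf9 membrane reagent. Cells were enriched on streptavidin microbeads and then FACS-sorted, with low and high (top ~1%) gates set on anti-HA fluorescence for expression and streptavidin fluorescence for reagent binding. Each polyreactivity label reflects the gate a clone came from. Genes were amplified by colony PCR, sequenced by MiSeq 2 × 250 and filtered by CDR length.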

Row | Sequence | polyreactivity (PSR sort gate)
1 | QVQLVESGGGLVQAGGSLRLSCAASGRTFTTYAMGWYRQAPRKERELVASISRRGGSTYYADSVKGRFTISRDNAKNTVYLQMNSLKPEDTAVYYCNAGGVRKYGYWGQGTQVTVSS | high polyreactivity
2 | QVQLVESGGGLVQAGGSLRLSCAASGRTFTVNAMGWYRPAPGKERELVAAISGRSGRTSYADSVKGRFTISRDNAKNNVYLQMNSLKPEDTAVYSCNASGGYSTGSRFEYWGQGTQVTVSS | high polyreactivity
3 | QVQLVESGGGLVQAGGSLRLSCAASGRTFTWNAMGWYRQAPGKERELVADITNNGGSTYYADSVKGRFTISRDNATNTVYLQMNSLKPEDTAVYYCDNRRNYWFSFDYWGQGTQVTVSS | low polyreactivity
4 | QVQLVESGGGLVQAGGSLRLSCAASGRTFTWYTMGCYIQAPGKERELVAAISGSGSRTYYADSVKGRFTISRDNAKNTVYLQMNSLKPEDTAVYYCAKDKSARYRYDYWGQGTQVTVSS | low polyreactivity
5 | QVQLVESGGGLVQAGGSLRLSCAASGRTFTYNAMGWYRQAPGKERELVASITWSGGRTYYADSVKGRFTISRDNAKNTVYLQMNSLKPEDTAVYYCAAYRWWGYITGVRGAKSIFDYWGQGTQVTVSS | high polyreactivity
6 | QVQLVESGGGLVQAGGSLRLSCAASGRTFTYNTMGWYRQAPGKERELVAAISSRGGRTYYADSVKGRFTISRDNAKNTVYLQLNSLKPEDTAVYACAVYGYYALTHWEYDYWGQGTQVTVSS | high polyreactivity
7 | QVQLVESGGGLVQAGGSLRLSCAASGRTFTYYAMGWYRQAPGKERELVADINRSGGDTYYADSVKGRFTISRDNAKNTVYLQMNSLKPEDTAVYYCAADDWGAQHRYDYWGQGTQVTVSS | low polyreactivity
8 | QVQLVESGGGLVQAGGSLRLSCAASGRTFTYYAMGWYRQAPGKERELVARISSSGSTNYADSVKGRFTISRDNAKNTVYLQMNSLKPEDTAVYYCAARYWRGPRYDYWGQGTQVTVSS | high polyreactivity
9 | QVQLVESGGGLVQAGGSLRLSCAASGRTFTYYAMGWYRQAPGKERKLVAAISQRGGGTYYADSVKGRFTISRDNAKNTVYLQMNSLKPEDTAVYYCAARWRLSGYDYWGQGTQVTVSS | high polyreactivity
10 | QVQLVESGGGLVQAGGSLRLSCAASGRTFVDNAMGWYRHAPGKERELVAAISSGGTTNYADSVKGRFTISRDNAKNTVYLQMNSLKPEDTAVYYCNTVATYLRSGYGYWGQGTQVTVSS | low polyreactivity
11 | QVQLVESGGGLVQAGGSLRLSCAASGRTFVDYVMGWYRQAPGKERELVAAISRSGSTYYADSVKGRFTISRDNAKNTVYLQMNSLKPEDTAVYYCAASSVALPWYVSWYVYGYEYWGQGTQVTVSS | low polyreactivity
12 | QVQLVESGGGLVQAGGSLRLSCAASGRTFVFNAMGWYRQAPGKERELVAGISGSGGSTYYADSVKGRFTISRDNAKNTVYLQMNSLKPEDTAVYYCATKFPRKELDQDSVSGLGYWGQGTQVTVSS | low polyreactivity
13 | QVQLVESGGGLVQAGGSLRLSCAASGRTFVGNVMGWYRQAPGKERELVAAINRDASTNYADSVKGRFTISRDNAKNTVYLQMNSLKPEDTAVYYCATRRGFFDIFYGGYDYWGQGTQVTVSS | low polyreactivity
14 | QVQLVESGGGLVQAGGSLRLSCAASGRTFVGYAMGWYRQAPGKERELVAAISRRGGSTYYADSVKGRFTISRDYAKKTVYLQMNSLKPEDTAVYYCARDYGGVGAPGSAGAYDYWGQGTQVTVSS | high polyreactivity
15 | QVQLVESGGGLVQAGGSLRLSCAASGRTFVGYAMGWYRQAPGKERELVAAISWSGGRTYYADSVKGRFTISRDNAKNTVYLQMNSLKPEDTAVYYCAALLYRTPYYPYYGYDYWGQGTQVTVSS | high polyreactivity
16 | QVQLVESGGGLVQAGGSLRLSCAASGRTFVGYAMGWYRQSPGKERELVAAISTSGGRTYYADSVKGRFTISRDNAKYTVYLQMNSLKPEDTAVYYCAAGFRASIGYVTEYYWGQGTQVTVTS | high polyreactivity
17 | QVQLVESGGGLVQAGGSLRLSCAASGRTFVGYPIGWYRQAPGKESELVATITNDAITNADSVKGRFTISRDNAKNTVYLQMNSLKPEDTAVYYCNTRYSYGTAYEQYRYKALYDYWGQGTQVTVSS | low polyreactivity
18 | QVQLVESGGGLVQAGGSLRLSCAASGRTFVINAMGWYRQAPGKERELVAAISRGGSTNYADSVKGRFTISRDNAKNTVYLQMNSLKPEDTAVYYCNADYPNWWSPFDYWGQGTQVTVSS | low polyreactivity
19 | QVQLVESGGGLVQAGGSLRLSCAASGRTFVKNAMGWYRQAPGKERELVAAIDRGSRTNYADSVKGRFTISRDNAKNTVYLQMNSLKPEDTAVYYCATRYRVRDDQTGTWSIFGYWGQGTQVTVSS | high polyreactivity
20 | QVQLVESGGGLVQAGGSLRLSCAASGRTFVKNAMGWYRQAPGKERELVAAISRTGSTNYADSVKGRFTISRDNAKNTVYLQMNSLKPEDTAVYYCAAVRYDYWGQGTQVTVSS | low polyreactivity
21 | QVQLVESGGGLVQAGGSLRLSCAASGRTFVLYAMGWYRQAPGKERELVAAITSGGSTNYADSVKGRFTISRDNAKNTVYLQMNSLKPEDTAVYDCAAVPVRYRYSYGYYYWGQGTQVTVSS | high polyreactivity
22 | QVQLVESGGGLVQAGGSLRLSCAASGRTFVLYAMGWYRQAPVKERELVASITWSGVSTTYADSVKGRFTISRDNAKNTVYLQMNSLKPEDTAVYYCAKDGLFEQGYPYQLGYWGQGTQVTVSS | low polyreactivity

Row | Sequence | polyreactivity (PSR sort gate)
23 | QVQLVESGGGLVQAGGSLRLSCAASGRTFVLYTMGRYRQAPGKERELVAVGSTYYADSVKGRFTISRDNAKNTVYLQMNSLKPEDTAVYYCNKPGNYVWRRSWDFDYWGQGTQVTVSS | high polyreactivity
24 | QVQLVESGGGLVQAGGSLRLSCAASGRTFVLYTMGWYRQAPGKERELVAVGSTYYADSVKGRFTISRDNAKNTVYLQMNSLIAEDTAVYYCAADIHWYGYYYWGLGTQVTVSS | high polyreactivity
25 | QVQLVESGGGLVQAGGSLRLSCAASGRTFVLYTMGWYRQAPGKERELVAVGSTYYADSVKGRFTISRDNAKNTVYLQMNSLKPEDTAVYYCNKPGNYVWRRSWDFDYWGQGTQVTVSS | high polyreactivity
26 | QVQLVESGGGLVQAGGSLRLSCAASGRTFVNNAMGWYRQAPGKERELVAAISRSGGRTYYADSVKGRFTISRDNAKNTVYLQMNSLKPEDTAVYYCAADSSYSRKYDYWGQGTQVTVSS | low polyreactivity
27 | QVQLVESGGGLVQAGGSLRLSCAASGRTFVNNAMGWYRQAPGKERELVAAITRSGGRTYYADSVKGRFTISRDNAKNTVYLQMNSLKPEDTAVYYCATANVRLRHDDYWGQGTQVTVSS | high polyreactivity
28 | QVQLVESGGGLVQAGGSLRLSCAASGRTFVNYTMGWYRQAPGKERELVAAVSWTGGRTYYADSVKGRFTISRDNAKNTVYLQMNSLKPEDTAVYYCATQPEKSGRPAIDPELYDYWGQGTQVTVSS | low polyreactivity
29 | QVQLVESGGGLVQAGGSLRLSCAASGRTFVPNAMGWYRQAPGKERELVAAISDSGGSTYYADSVKGRFTISRDNAKNTVYLQMNSLKPEDTAVYYCATDGTTYVGWEHGFNYWGQGTQVTVSS | low polyreactivity
30 | QVQLVESGGGLVQAGGSLRLSCAASGRTFVPYAMGRYRQAPGKERELVAAISARGSSTYYADSVKGRFTISRDNAKNTVYLQMNSLKPEDTAVYYCNAVGARVASATGMEYWGQGTQVTVSS | high polyreactivity
31 | QVQLVESGGGLVQAGGSLRLSCAASGRTFVPYAMGWYRQAPGKERELVAAINSGGSTYYADSVKGRFSISRDNAKNTVYLQMNSLKPEDTAVYYCAAEYWNSRFSYAYGYWGQGTQVTVSS | high polyreactivity
32 | QVQLVESGGGLVQAGGSLRLSCAASGRTFVPYAMGWYRQAPGKERELVAAITSSGGSTYYADSVKGRFTISRDNAKNTVYLQMNSLKPEDTAVYYCNALDGTLRTIYDYWGQGTQVTVSS | high polyreactivity
33 | QVQLVESGGGLVQAGGSLRLSCAASGRTFVRNAMGWYRQAPGKERELVAAISSSGGSTYYADSVKGRFTISRDNAKNTVYLQMNSLKPEDTAVYYCAARSAFYYTYRSHYGWGMDYWGQGTQVTVSS | high polyreactivity
34 | QVQLVESGGGLVQAGGSLRLSCAASGRTFVRNAMGWYRQAPGKERELVAGIRRGGTTNYADSVKGRFTISRDNAKNTVYLQMNSLKPEDTAVYYCNALYRYGWLYAPKYNSWGQGTQVTVSS | high polyreactivity
35 | QVQLVESGGGLVQAGGSLRLSCAASGRTFVRYAMGRYRQAPGKERELVAAISGDGASTYYADSVKGRFTISRDNAKNTVYLQMNSLKPEDPAVYYCNARSIRRYYYPDYDYWGQGTQVTVSS | high polyreactivity
36 | QVQLVESGGGLVQAGGSLRLSCAASGRTFVRYAMGWYRQAPGKERELVAAISRTGGTTYYADSVKGRFTISRDNAKNTVYLQMNSLKPEDTAVYYCNADPFYKYGYWGQGTKVTVSS | high polyreactivity
37 | QVQLVESGGGLVQAGGSLRLSCAASGRTFVRYAMGWYRQAPGKERELVASIRTGGSTNYADSVKGRFTISRDNAKNTVYLQMNSLKPEDTAVYYCAAPRTYRPWGRMDYWGQGTQVTVSS | high polyreactivity
38 | QVQLVESGGGLVQAGGSLRLSCAASGRTFVSHAMGWYRQAPGKERELVAAITNGGRTYYADSVKGRFTISRDNAKNTVYLQMNSLKPEDTAVYYCAAYVPTFKDRSRWYGRKYDYWGQGTQVTVSS | low polyreactivity
39 | QVQLVESGGGLVQAGGSLRLSCAASGRTFVSNAMGWYRQAPGKERELVAAISFSGDSTYYADSVKGRFTISRDNAKKTVYLQMNSLKPEDTAVYYCRFYSYWSWLGREYDYWGQGTQVTVSS | low polyreactivity
40 | QVQLVESGGGLVQAGGSLRLSCAASGRTFVSNAMGWYRQAPGKERELVAAISWSGSRTYYADSVKGRFTISRDNAKNTVYLQMNSLKPEDTAVYYCAAAKPKKSRGSAYEYWGQGTQVTVSS | high polyreactivity
41 | QVQLVESGGGLVQAGGSLRLSCAASGRTFVSNDMGWYRQAPGKERELVATISSGASTYYADSVKGRFTISRDNAKITVYLQMNSLKPEDTAVYYCAAEVLVFGGGYDYWGQGTQVTVSS | low polyreactivity
42 | QVQLVESGGGLVQAGGSLRLSCAASGRTFVSNVMGWYRQAPGKERELVAAINWSGDSTYYADSVKGRFTISRDNAKNTVYLQMNSLKPEDTAVYYCARRNPLGGNEHDYWGQGTQVTVSS | low polyreactivity
43 | QVQLVESGGGLVQAGGSLRLSCAASGRTFVSYTMGWYRQAPGKERELVAAISSGGSTTYADSVKGRFTISRDNAKNTVYLQMNSLKPEDTAVYYCNARYGWSYWSKYDYWGQGTQVTVSS | high polyreactivity
